# Assay results from the RNAGym collection of RNA variant scans (doi:10.7554/elife.80360).
# B1: Hairpin Ribozyme (parent)
# chain: GUCCUCUUUCACGUGCGCGUGAAAGAGAGAAGUGAACCAGAGAAACACACGUUGUGGUAUAUUACCUGGUA
# Variants of: B1
# Experiment: self-cleavage, relative activity (ratio to wild type); higher = more cleavage; co-transcriptional
row,Variant,self-cleavage
1,C3U G32U,0.102
2,C3U G34U,1.17
3,C3U G40C,0.0768
4,C3U G40U,0.119
5,C3U G42A,0.123
6,C3U G42U,0.21
7,C3U G54U,0.227
8,C3U G56A,0.16
9,C3U G57C,0.094
10,C3U G68C,0.142
11,C3U G69C,0.185
12,C3U U5C,0.299
13,C3U U8C,0.253
14,C3U U9A,0.299
15,C3U U9C,0.387
16,C3U U20C,0.38
17,C3U U52A,0.522
18,C3U U53C,0.672
19,C3U U58C,0.738
20,C3U U60C,0.705
21,C3U U60G,0.331
22,C3U U62G,0.259
23,C3U U63A,0.189
24,C3U U67C,0.122

row,Variant,self-cleavage
1,C3U U70A,0.305
2,C3U U70C,0.351
3,C4A A11C,0.353
4,C4A A23G,0.209
5,C4A A24G,0.143
6,C4A A26C,0.13
7,C4A A26G,0.17
8,C4A A26U,0.228
9,C4A A28U,0.174
10,C4A A31G,0.101
11,C4A A35C,0.127
12,C4A A36U,0.197
13,C4A A39G,0.134
14,C4A A41G,0.13
15,C4A A43G,0.0748
16,C4A A44U,0.239
17,C4A A49U,0.189
18,C4A A59C,0.191
19,C4A A59U,0.0921
20,C4A A71C,0.674
21,C4A C10G,0.164
22,C4A C12A,0.187
23,C4A C16U,0.197
24,C4A C18G,0.198

row,Variant,self-cleavage
1,C4A C18U,0.342
2,C4A C37U,0.16
3,C4A C38U,0.135
4,C4A C48G,0.207
5,C4A C48U,0.15
6,C4A C50A,0.178
7,C4A C50G,0.149
8,C4A C65G,0.179
9,C4A C66G,0.193
10,C4A C66U,0.136
11,C4A G13A,0.193
12,C4A G15A,0.227
13,C4A G15U,0.182
14,C4A G17A,0.174
15,C4A G19C,0.143
16,C4A G25A,0.169
17,C4A G27A,0.285
18,C4A G27C,0.093
19,C4A G27U,0.557
20,C4A G29A,0.119
21,C4A G34A,0.37
22,C4A G34C,0.676
23,C4A G40A,0.133
24,C4A G40C,0.0835

row,Variant,self-cleavage
1,C4A G40U,0.141
2,C4A G42C,0.132
3,C4A G54A,0.184
4,C4A G54C,0.133
5,C4A G54U,0.118
6,C4A G56A,0.114
7,C4A G57A,0.117
8,C4A G57C,0.156
9,C4A G69U,0.169
10,C4A U5C,0.23
11,C4A U5G,0.109
12,C4A U8G,0.0842
13,C4A U9A,0.233
14,C4A U14A,0.191
15,C4A U20A,0.0852
16,C4A U53A,0.363
17,C4A U53C,0.206
18,C4A U55A,0.163
19,C4A U55C,0.0693
20,C4A U58C,0.293
21,C4A U60C,0.521
22,C4A U60G,0.139
23,C4A U62G,0.1
24,C4A U63A,0.101

row,Variant,self-cleavage
1,C4A U63C,0.115
2,C4A U63G,0.269
3,C4A U67C,0.0871
4,C4A U70G,0.154
5,C4G A11G,0.272
6,C4G A23C,0.233
7,C4G A23G,0.25
8,C4G A26G,0.16
9,C4G A28C,0.172
10,C4G A35C,0.16
11,C4G A35U,0.157
12,C4G A41C,0.236
13,C4G A41U,0.558
14,C4G A45G,0.274
15,C4G A47C,0.13
16,C4G A47U,0.0972
17,C4G A49C,0.161
18,C4G A64C,0.167
19,C4G A71G,0.241
20,C4G A71U,0.289
21,C4G C10A,0.12
22,C4G C10G,0.114
23,C4G C12U,0.187
24,C4G C18A,0.194

row,Variant,self-cleavage
1,C4G C18G,0.0835
2,C4G C37U,0.222
3,C4G C38G,0.104
4,C4G C48G,0.0514
5,C4G C50U,0.154
6,C4G C66G,0.209
7,C4G G13U,0.21
8,C4G G15U,0.185
9,C4G G17A,0.159
10,C4G G19A,0.143
11,C4G G19U,0.225
12,C4G G21C,0.231
13,C4G G21U,0.123
14,C4G G25U,0.177
15,C4G G27U,0.31
16,C4G G29A,0.0497
17,C4G G34C,1.19
18,C4G G40U,0.0761
19,C4G G42C,0.17
20,C4G G51A,0.245
21,C4G G56C,0.111
22,C4G G57U,0.151
23,C4G G68A,0.084
24,C4G U5C,0.112

row,Variant,self-cleavage
1,C4G U7G,0.144
2,C4G U8G,0.0927
3,C4G U9C,0.274
4,C4G U9G,0.164
5,C4G U14C,0.125
6,C4G U20G,0.22
7,C4G U33A,0.154
8,C4G U53A,0.15
9,C4G U53C,0.264
10,C4G U53G,0.117
11,C4G U55A,0.119
12,C4G U55C,0.122
13,C4G U58A,0.108
14,C4G U58C,0.403
15,C4G U62A,0.191
16,C4G U63A,0.252
17,C4G U63G,0.217
18,C4G U67A,0.111
19,C4G U70C,0.214
20,C4U A11C,0.191
21,C4U A22G,0.236
22,C4U A23G,0.299
23,C4U A23U,0.315
